US20220017608A1 (Teva, published 2022)
Residue numbers refer to the chain shown, from its start. Where no end group is shown, it is not given here. The star is where a group is joined. Biotin = O=C1N[C@H]2[C@H](CS[C@H]2CCCCC(=O)*)N1

Key:
[1] = molecular target: T1, rat β-CGRP (rat, not fully specified; C-terminal amide (CONH2); N-biotinylated when captured on the Biacore chip); test: Biacore (legend of Table 1)
T1 construct: also called β-rat
T1 peptide: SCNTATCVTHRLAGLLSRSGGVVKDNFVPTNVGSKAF

[2] = molecular target: T2, human α-CGRP (human, C-terminal amide (CONH2); N-biotinylated when captured on the Biacore chip); test: Biacore, N-biotin-CGRP on chip, 37 C
T2 construct: N-biotinylated in the Biacore assays; also called α-Hu; α-human
T2 peptide: T1 peptide with S1A, N3D, D25N

[3] = molecular target: T3, rat α-CGRP (rat, not fully specified; C-terminal amide (CONH2); N-biotinylated when captured on the Biacore chip); test: Biacore, N-biotin-CGRP on chip, 37 C
T3 construct: also called α-Rat; α-rat
T3 peptide: T1 peptide with K35E

[4] = molecular target: T1, rat β-CGRP; test: Biacore, N-biotin-CGRP on chip, 37 C
[5] = molecular target: T4, human β-CGRP (human, not fully specified; C-terminal amide (CONH2); N-biotinylated when captured on the Biacore chip); test: Biacore, N-biotin-CGRP on chip, 37 C
T4 construct: also called β-human
T4 peptide: T1 peptide with S1A, V22M, D25S

[6] = molecular target: T2, human α-CGRP; test: competition binding assay on SK-N-MC cells: antibody blocks binding of human α-CGRP to the CGRP1 receptor; value in binding sites
[7] = molecular target: T2, human α-CGRP; test: Biacore, N-biotin-CGRP on chip, 25 C
[8] = molecular target: T3, rat α-CGRP; test: Biacore, N-biotin-CGRP on chip, 25 C
[9] = molecular target: T2, human α-CGRP; test: Biacore, N-biotinylated CGRP captured on chip, 25 C
[10] = molecular target: T3, rat α-CGRP; test: as above
[11] = molecular target: T2, human α-CGRP; test: competition binding assay on SK-N-MC cells: antibody blocks binding of human α-CGRP to the CGRP1 receptor
[12] = molecular target: T5, cynomolgus monkey α-CGRP (cynomolgus monkey); test: Biacore
T5 construct: also called cyno CGRP

[13] = molecular target: T2, human α-CGRP; test: Biacore, ratio of KD against rat α-CGRP
[14] = molecular target: T2, human α-CGRP; test: competition binding assay on SK-N-MC cells: antibody blocks binding of human α-CGRP to the CGRP1 receptor; value in IgG molecules
[15] = molecular target: T6, amylin (Homo sapiens (Human), UniProt P10997 34-70, not fully specified; Natural amylin has a C-terminal Tyr amide and a Cys2-Cys7 disulfide. The patent passages shown say nothing on this.); test: Biacore solution competition, chip probes free G1
T6 peptide: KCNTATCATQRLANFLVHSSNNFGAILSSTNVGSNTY

[16] = molecular target: T7, adrenomedullin (Homo sapiens (Human), UniProt P35318 95-146, Natural adrenomedullin has a C-terminal Tyr amide and a Cys16-Cys21 disulfide. The patent passages shown say nothing on this.); test: Biacore solution competition, chip probes free G1
T7 sequence (peptide): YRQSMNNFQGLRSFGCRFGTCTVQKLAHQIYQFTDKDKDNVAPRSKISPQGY

[17] = molecular target: T8, calcitonin (Homo sapiens (Human), UniProt P01258 85-116, not fully specified; Natural calcitonin has a C-terminal Pro amide and a Cys1-Cys7 disulfide. The patent passages shown say nothing on this.); test: Biacore solution competition, chip probes free G1
T8 peptide: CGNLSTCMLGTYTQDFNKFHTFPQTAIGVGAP

[18] = molecular target: T2, human α-CGRP; test: blocking of human α-CGRP binding to the CGRP1-receptor in SK-N-MC cells; IC50 converted to binding sites
[19] = molecular target: T9, P29A (ends and bridges not checked); test: Biacore 3000, 25 °C, alanine scan: N-biotinylated peptide on SA chip, G1 Fab titrated; fold loss versus wild-type 25-37 fragment
T9 construct: also called HuαCGRP fragment 25-37 P29A
T9 peptide: Biotin-NNFVATNVGSKAF
Description: (§1) Interaction analysis was conducted at 25° C. on a Biacore 3000™ system equipped with streptavidin-coated (SA) sensor chips (Biacore AB, Uppsala, Sweden) using a standard Biacore running buffer (HBS-P). […] Each amino acid between position 27-37 was then mutated individually to alanine and expressed the fold loss in affinity compared to the wild-type fragment. […] Fab fragments were titrated over the chip using 1 μM as the top concentration of a two-fold dilution series. Association and dissociation phases were monitored at 100 μl/min for 1 minute and 5 minutes respectively. Surfaces were regenerated with a mixture of 35% ethanol+25 mM NaOH+0.5M NaCl.

[20] = molecular target: T10, V32A (ends and bridges not checked); test: as above
T10 construct: also called HuαCGRP fragment 25-37 V32A
T10 peptide: Biotin-NNFVPTNAGSKAF
Description: as §1

[21] = molecular target: T11, F27A (ends and bridges not checked); test: as above
T11 construct: also called HuαCGRP fragment 25-37 F27A
T11 peptide: Biotin-NNAVPTNVGSKAF
Description: as §1

[22] = molecular target: T12, T30A (ends and bridges not checked); test: as above
T12 construct: also called HuαCGRP fragment 25-37 T30A
T12 peptide: Biotin-NNFVPANVGSKAF
Description: as §1

[23] = molecular target: T13, N31A (ends and bridges not checked); test: as above
T13 construct: also called HuαCGRP fragment 25-37 N31A
T13 peptide: Biotin-NNFVPTAVGSKAF
Description: as §1

[24] = molecular target: T14, V28A (ends and bridges not checked); test: as above
T14 construct: also called HuαCGRP fragment 25-37 V28A
T14 peptide: Biotin-NNFAPTNVGSKAF
Description: as §1

[25] = molecular target: T15, K35A (ends and bridges not checked); test: as above
T15 construct: also called HuαCGRP fragment 25-37 K35A
T15 peptide: Biotin-NNFVPTNVGSAAF
Description: as §1

[26] = molecular target: T1, rat β-CGRP; test: Biacore (legend of Table 1), rat β-CGRP

B1: antibody G1 (antibody, human IgG2, kappa, V domains shown)
VH: EVQLVESGGGLVQPGGSLRLSCAASGFTFSNYWISWVRQAPGKGLEWVAEIRSESDASATHYAEAVKGRFTISRDNAKNSLYLQMNSLRAEDTAVYYCLAYFDYGLAIQNYWGQGTLVTVSS
VL: EIVLTQSPATLSLSPGERATLSCKASKRVTTYVSWYQQKPGQAPRLLIYGASNRYLGIPARFSGSGSGTDFTLTISSLEPEDFAVYYCSQSYNYPYTFGQGTKLEIKR
notes: Humanized IgG2 delta-a antibody derived from muMAb7E9; also called anti-CGRP antibody G1
Kd [1]: 0.1 nM | Kd [2]: 0.063 nM | T1/2 [2]: 5.3 h | koff [2]: 3.63e-05 s⁻¹ | kon [2]: 587000 M⁻¹ s⁻¹ | Kd [3]: 2.57 nM | T1/2 [3]: 0.48 h | koff [3]: 0.000399 s⁻¹ | kon [3]: 155000 M⁻¹ s⁻¹ | Kd [4]: 0.152 nM | T1/2 [4]: 2.45 h | koff [4]: 7.85e-05 s⁻¹ | kon [4]: 516000 M⁻¹ s⁻¹ | Kd [5]: 0.155 nM | T1/2 [5]: 2.76 h | koff [5]: 6.98e-05 s⁻¹ | kon [5]: 451000 M⁻¹ s⁻¹ | IC50 [6]: 1.8 nM | Ki [6]: 0.74 nM | Kd [7]: 0.042 nM | T1/2 [7]: 24.7 h | koff [7]: 7.8e-06 s⁻¹ | kon [7]: 186000 M⁻¹ s⁻¹ | Kd [8]: 1.22 nM | T1/2 [8]: 3.12 h | koff [8]: 6.18e-05 s⁻¹ | kon [8]: 50800 M⁻¹ s⁻¹ | Kd [9]: 0.04 nM | Kd [10]: 1.2 nM | IC50 (read off the curve) [11]: ~0.1 µg/mL | Kd [12]: 0.063 nM | fold more potent affinity than for rat α-CGRP [13]: 40 fold | Ki [14]: 0.37 nM | binding result [15]: no binding (tested: an excess) | binding result [16]: no binding (tested: an excess) | binding result [17]: no binding (tested: an excess) | IC50 [18]: 1.2 nM

B2: Fab fragments of antibody G1 (Fab, V domains shown)
VH: B1 VH
VL: EIVLTQSPATLSLSPGERATLSCKASKRVTTYVSWYQQKPGQAPRLLIYGASNRYLGIPARFSGSGSGTDFTLTISSLEPEDFAVYYCSQSYNYPYTFGQGTKLEIK
notes: 'Purified Fab fragments of antibody G1 were generated'; also called G1 Fab
Fold loss in affinity [19]: 2.8 fold | Fold loss in affinity [20]: 6.1 fold | Fold loss in affinity [21]: 1.4 fold | Fold loss in affinity [22]: 1.7 fold | Fold loss in affinity [23]: 1.9 fold | Fold loss in affinity [24]: 1 fold | Fold loss in affinity [25]: 8.1 fold

B3: antibody G2 (antibody, V domains shown)
VH: EVQLQQSGPELVKPGASVKMSCKASGYTFTSSVMHWVKQKPGQGLEWIGYINPYNDGTKYNEKFKGKATLTSDKSSSTAYMELSSLTSEDSAVYYCAKGGNDGYWGQGTTLTVSS
VL: EIVLTQSPTTMAASPGEKITITCSASSSISSIYLHWYQQKPGFSPKVLIYRASNLASGVPARFSGSGSGTSYSLTIGTMEAEDVATYYCQQGSTIPFTFGSGTKLEIKR
notes: Anti-rat CGRP mouse monoclonal antibody (Wong et al. 1993); also called RN4901
Kd [9]: 17 nM | Kd [10]: 1 nM | Kd [26]: 17 nM | IC50 [18]: 37 nM
